Experimental data from patent US7067619 (LA JOLLA CANCER RESEARCH FOUNDATION, dated 2006).
Bridge positions count the residues as written; N and C are the ends. Ends that are not written are not given here.

B1: CRGDGWC phage (peptide)
peptide: CRGDGWC
modifications: disulfide 1-7 (inferred)
notes: on fuse 5 phage, fused to pIII; also called phage expressing the peptide A*CRGDGWC*G; not shown: The pIII coat protein of the fuse 5 phage vector and its junction residues

Biological target: αvβ5 integrin isolated from human placental extract (human, UniProt P06756 31-1048; P18084 24-799)
Sequence (P06756 31-1048, chain 1 of 2): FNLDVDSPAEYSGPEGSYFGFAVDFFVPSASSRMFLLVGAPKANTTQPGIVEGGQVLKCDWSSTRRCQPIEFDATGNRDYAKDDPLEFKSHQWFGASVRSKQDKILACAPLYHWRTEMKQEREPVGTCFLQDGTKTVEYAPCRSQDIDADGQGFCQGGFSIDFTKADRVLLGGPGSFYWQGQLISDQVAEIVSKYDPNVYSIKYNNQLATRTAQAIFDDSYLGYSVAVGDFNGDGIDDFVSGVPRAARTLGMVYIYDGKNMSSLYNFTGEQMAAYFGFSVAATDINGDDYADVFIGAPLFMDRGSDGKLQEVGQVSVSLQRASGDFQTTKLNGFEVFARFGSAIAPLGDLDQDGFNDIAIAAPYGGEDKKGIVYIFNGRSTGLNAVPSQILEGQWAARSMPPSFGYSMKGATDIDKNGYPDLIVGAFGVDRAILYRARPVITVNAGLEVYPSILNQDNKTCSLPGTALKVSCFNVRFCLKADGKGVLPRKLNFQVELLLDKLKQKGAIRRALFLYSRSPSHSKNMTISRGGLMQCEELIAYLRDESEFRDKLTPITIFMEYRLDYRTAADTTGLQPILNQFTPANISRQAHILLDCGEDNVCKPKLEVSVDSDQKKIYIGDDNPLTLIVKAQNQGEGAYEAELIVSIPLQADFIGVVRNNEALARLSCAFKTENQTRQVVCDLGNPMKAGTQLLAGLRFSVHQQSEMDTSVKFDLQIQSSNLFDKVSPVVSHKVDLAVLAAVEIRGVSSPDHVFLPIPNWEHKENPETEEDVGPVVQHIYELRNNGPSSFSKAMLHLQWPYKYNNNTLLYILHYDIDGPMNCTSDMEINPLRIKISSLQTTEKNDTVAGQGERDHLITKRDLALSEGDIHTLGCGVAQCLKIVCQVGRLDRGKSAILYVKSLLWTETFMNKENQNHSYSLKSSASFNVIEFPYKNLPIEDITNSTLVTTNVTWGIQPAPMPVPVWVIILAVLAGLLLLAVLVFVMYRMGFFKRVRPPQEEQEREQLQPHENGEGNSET
Sequence (P18084 24-799, chain 2 of 2): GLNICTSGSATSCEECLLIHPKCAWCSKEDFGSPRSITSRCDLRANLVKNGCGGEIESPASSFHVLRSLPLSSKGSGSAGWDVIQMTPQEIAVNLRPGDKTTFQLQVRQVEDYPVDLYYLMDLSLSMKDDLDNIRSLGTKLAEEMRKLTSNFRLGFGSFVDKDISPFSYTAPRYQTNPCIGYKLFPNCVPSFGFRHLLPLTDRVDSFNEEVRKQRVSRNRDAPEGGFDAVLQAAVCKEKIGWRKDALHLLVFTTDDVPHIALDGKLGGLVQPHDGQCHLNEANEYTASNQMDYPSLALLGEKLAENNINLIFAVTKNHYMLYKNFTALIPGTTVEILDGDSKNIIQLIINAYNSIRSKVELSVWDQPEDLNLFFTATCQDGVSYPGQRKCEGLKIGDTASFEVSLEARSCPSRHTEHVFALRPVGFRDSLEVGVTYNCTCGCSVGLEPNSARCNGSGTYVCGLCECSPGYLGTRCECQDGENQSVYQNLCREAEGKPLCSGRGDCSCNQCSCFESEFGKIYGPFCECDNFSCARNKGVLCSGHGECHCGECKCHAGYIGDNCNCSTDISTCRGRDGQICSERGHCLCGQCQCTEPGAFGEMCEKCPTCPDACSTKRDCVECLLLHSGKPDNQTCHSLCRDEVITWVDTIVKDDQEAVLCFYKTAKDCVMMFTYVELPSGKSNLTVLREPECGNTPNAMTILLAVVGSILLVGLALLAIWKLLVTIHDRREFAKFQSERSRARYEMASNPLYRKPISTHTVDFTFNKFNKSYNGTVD
Assay: phage panning on coated integrin
Protocol: (§1) In the first panning, the integrins were coated at 5 µg per well, and the library pool was incubated for 4 hours at 25° C. in TBS buffer containing 1% bovine serum albumin and 1 mM MnCl_2 (α_5β_1, α_vβ_3) 1 mM MgCl_2 ($\alphaIIb\beta_3$) or 1 mM CaCl_2 (α_vβ_5).

Binder | binding result
CVGKELHKRV (on fuse 5 phage, fused to pIII) [CVGKELHKRV phage] | binds
CSQKRGDTWC (on fuse 5 phage, fused to pIII) [CSQKRGDTWC phage] | binds
CIEIQHGKAC (on fuse 5 phage, fused to pIII) [CIEIQHGKAC phage] | binds
CRGDLPRAWC (on fuse 5 phage, fused to pIII) [CRGDLPRAWC phage] | binds
CYRGDADFWC (on fuse 5 phage, fused to pIII) [CYRGDADFWC phage] | binds
CTRKRAVGAA (on fuse 5 phage, fused to pIII) [CTRKRAVGAA phage] | binds
CRKQVMACTA (on fuse 5 phage, fused to pIII) [CRKQVMACTA phage] | binds
CGSPLKSIKC (on fuse 5 phage, fused to pIII) [CGSPLKSIKC phage] | binds
CRGDTPGFLC (on fuse 5 phage, fused to pIII) [CRGDTPGFLC phage] | binds
CPDKRGDTYC (on fuse 5 phage, fused to pIII) [CPDKRGDTYC phage] | binds
CIRQRIYPWC (on fuse 5 phage, fused to pIII) [CIRQRIYPWC phage] | binds
CGQRSSARAS (on fuse 5 phage, fused to pIII) [CGQRSSARAS phage] | binds
CEAKFQLHWV (on fuse 5 phage, fused to pIII) [CEAKFQLHWV phage] | binds
CRGDVPAVGC (on fuse 5 phage, fused to pIII) [CRGDVPAVGC phage] | binds
CGPRERFLSC (on fuse 5 phage, fused to pIII) [CGPRERFLSC phage] | binds

Biological target: T1, α5β1 integrin isolated from human placental extract (human, UniProt P08648 42-1049; P05556 21-798)
T1 construct: coated on plastic wells or captured by anti-α5 antibody; also called fibronectin receptor
T1 sequence (P08648 42-1049, chain 1 of 2): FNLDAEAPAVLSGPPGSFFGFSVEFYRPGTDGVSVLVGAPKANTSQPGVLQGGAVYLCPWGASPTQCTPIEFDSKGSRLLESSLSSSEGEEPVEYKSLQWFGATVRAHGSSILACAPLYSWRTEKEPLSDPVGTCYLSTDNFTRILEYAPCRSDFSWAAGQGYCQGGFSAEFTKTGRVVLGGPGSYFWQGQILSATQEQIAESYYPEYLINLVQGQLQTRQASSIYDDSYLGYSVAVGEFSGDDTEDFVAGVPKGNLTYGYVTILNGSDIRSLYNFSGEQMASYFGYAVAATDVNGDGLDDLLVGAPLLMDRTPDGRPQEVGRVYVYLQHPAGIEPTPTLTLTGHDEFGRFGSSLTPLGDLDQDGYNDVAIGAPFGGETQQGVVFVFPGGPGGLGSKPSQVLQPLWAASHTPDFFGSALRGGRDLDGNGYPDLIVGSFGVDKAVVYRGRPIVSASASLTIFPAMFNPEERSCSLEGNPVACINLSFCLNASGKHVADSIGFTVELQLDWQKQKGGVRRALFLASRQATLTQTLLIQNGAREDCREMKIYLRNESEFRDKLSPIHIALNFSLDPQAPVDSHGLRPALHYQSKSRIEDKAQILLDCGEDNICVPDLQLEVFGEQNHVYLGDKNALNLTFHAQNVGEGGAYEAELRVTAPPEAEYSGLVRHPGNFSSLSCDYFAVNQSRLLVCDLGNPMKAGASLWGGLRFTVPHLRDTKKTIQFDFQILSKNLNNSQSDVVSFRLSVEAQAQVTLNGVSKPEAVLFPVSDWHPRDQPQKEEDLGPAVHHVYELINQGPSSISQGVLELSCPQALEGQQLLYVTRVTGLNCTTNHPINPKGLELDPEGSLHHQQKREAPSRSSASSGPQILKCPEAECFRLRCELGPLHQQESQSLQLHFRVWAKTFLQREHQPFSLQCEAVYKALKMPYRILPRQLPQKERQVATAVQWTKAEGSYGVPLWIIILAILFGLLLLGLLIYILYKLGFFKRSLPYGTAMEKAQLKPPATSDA
T1 sequence (P05556 21-798, chain 2 of 2): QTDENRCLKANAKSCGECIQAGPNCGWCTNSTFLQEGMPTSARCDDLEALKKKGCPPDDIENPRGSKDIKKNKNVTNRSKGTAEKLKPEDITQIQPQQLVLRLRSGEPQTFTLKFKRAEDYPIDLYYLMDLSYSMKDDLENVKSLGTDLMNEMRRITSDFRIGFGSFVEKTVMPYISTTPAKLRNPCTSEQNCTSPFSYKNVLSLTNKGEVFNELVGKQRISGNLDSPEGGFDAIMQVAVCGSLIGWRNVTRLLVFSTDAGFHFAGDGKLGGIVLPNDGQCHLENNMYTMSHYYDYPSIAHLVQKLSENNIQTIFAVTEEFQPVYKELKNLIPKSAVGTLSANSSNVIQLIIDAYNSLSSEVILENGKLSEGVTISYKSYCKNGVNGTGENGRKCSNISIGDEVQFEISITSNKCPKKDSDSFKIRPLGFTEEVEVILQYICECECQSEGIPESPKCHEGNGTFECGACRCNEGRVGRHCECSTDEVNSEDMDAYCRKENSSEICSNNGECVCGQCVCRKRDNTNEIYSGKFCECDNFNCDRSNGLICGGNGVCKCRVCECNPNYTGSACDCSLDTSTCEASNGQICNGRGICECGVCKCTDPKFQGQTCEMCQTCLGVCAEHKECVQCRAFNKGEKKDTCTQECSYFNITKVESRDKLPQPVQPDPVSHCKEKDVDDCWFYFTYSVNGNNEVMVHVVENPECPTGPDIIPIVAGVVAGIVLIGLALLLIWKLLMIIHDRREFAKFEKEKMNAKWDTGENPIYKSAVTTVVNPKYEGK
Assay: phage panning on coated integrin
Protocol: as §1

Binder | binding result
CTNVNGRSAC (on fuse 5 phage, fused to pIII) [CTNVNGRSAC phage] | binds
CGQRGDGFCL (on fuse 5 phage, fused to pIII) [CGQRGDGFCL phage] | binds
CRGDGLMCGL (on fuse 5 phage, fused to pIII) [CRGDGLMCGL phage] | binds
CVDCILRYLC (on fuse 5 phage, fused to pIII) [CVDCILRYLC phage] | binds
B1 | binds
CGQGMHRLAC (on fuse 5 phage, fused to pIII) [CGQGMHRLAC phage] | binds
CGADSEEGPC (on fuse 5 phage, fused to pIII) [CGADSEEGPC phage] | binds
CRGDGYCVFF (on fuse 5 phage, fused to pIII) [CRGDGYCVFF phage] | binds
CYVNGRAWAC (on fuse 5 phage, fused to pIII) [CYVNGRAWAC phage] | binds
CQGIDGTPAC (on fuse 5 phage, fused to pIII) [CQGIDGTPAC phage] | binds
CQGMHGTPAC (on fuse 5 phage, fused to pIII) [CQGMHGTPAC phage] | binds
CWRGDHVMPC (on fuse 5 phage, fused to pIII) [CWRGDHVMPC phage] | binds
CRGDGQHC (on fuse 5 phage, fused to pIII) [CRGDGQHC phage] | binds
CDWRGDNQFC (on fuse 5 phage, fused to pIII) [CDWRGDNQFC phage] | binds
CLRGDGLALC (on fuse 5 phage, fused to pIII) [CLRGDGLALC phage] | binds
CRGDCLPTPR (on fuse 5 phage, fused to pIII) [CRGDCLPTPR phage] | binds
CPVRRGDGWC (on fuse 5 phage, fused to pIII) [CPVRRGDGWC phage] | binds
CKWRSARDLC (on fuse 5 phage, fused to pIII) [CKWRSARDLC phage] | binds
CMWLSVNYSC (on fuse 5 phage, fused to pIII) [CMWLSVNYSC phage] | binds
CREQPASRSC (on fuse 5 phage, fused to pIII) [CREQPASRSC phage] | binds

Binder | binding result
CRGDGAWC (on fuse 5 phage, fused to pIII) [CRGDGAWC phage] | binds
CRGDGWWC (on fuse 5 phage, fused to pIII) [CRGDGWWC phage] | binds
CRGDGLLC (on fuse 5 phage, fused to pIII) [CRGDGLLC phage] | binds
CRGDAAWC (on fuse 5 phage, fused to pIII) [CRGDAAWC phage] | binds
CRGDRAWC (on fuse 5 phage, fused to pIII) [CRGDRAWC phage] | binds
CRGDGLIC (on fuse 5 phage, fused to pIII) [CRGDGLIC phage] | binds
CRGDGFLC (on fuse 5 phage, fused to pIII) [CRGDGFLC phage] | binds
CRGDGWLC (on fuse 5 phage, fused to pIII) [CRGDGWLC phage] | binds
CRGDNVWC (on fuse 5 phage, fused to pIII) [CRGDNVWC phage] | binds
CRGDGMLC (on fuse 5 phage, fused to pIII) [CRGDGMLC phage] | binds
CRGDAAHC (on fuse 5 phage, fused to pIII) [CRGDAAHC phage] | binds
CRGDGWIC (on fuse 5 phage, fused to pIII) [CRGDGWIC phage] | binds
CRGDGLDC (on fuse 5 phage, fused to pIII) [CRGDGLDC phage] | binds
CRGDGMWC (on fuse 5 phage, fused to pIII) [CRGDGMWC phage] | binds
CRGDNAWC (on fuse 5 phage, fused to pIII) [CRGDNAWC phage] | binds
CRGDGLWC (on fuse 5 phage, fused to pIII) [CRGDGLWC phage] | binds
CRGDGWMC (on fuse 5 phage, fused to pIII) [CRGDGWMC phage] | binds
CRGDGLMC (on fuse 5 phage, fused to pIII) [CRGDGLMC phage] | binds
CRGDGAFC (on fuse 5 phage, fused to pIII) [CRGDGAFC phage] | binds
